These results are taken from US20250129145A1 (Ablynx, published 2025).

The koff is a measure of how fast the partners let go of each other. Low readings indicate slow dissociation, high ones fast dissociation. Broadly, the kon is the second-order rate constant of association. Low values mean slow association, high ones fast association.

The chains are these.
B1: TPP-66095 (other)
chain: DLGKKLLEAARAGQDDEVRELLKAGADVNAKDYFSHTPLHLAARNGHLKIVEVLLKAGADVNAKDFAGKTPLHLAANEGHLEIVEVLLKAGADVNAQDIFGKTPADIAADAGHEDIAEVLQKAAGGGGSGGGGSGGGGSGGGGSGGGGSGGGGSGGGGSEVQLVESGGGVVQPGGSLRLSCAASGFTFRSFGMSWVRQAPGKGPEWVSSISGSGSDTLYADSVKGRFTISRDNSKNTLYLQMNSLRPEDTALYYCTIGGSLSRSSQGTLVTVSSA
notes: also called DARPIN-35GS-ALB23002-A; DARPIN-35GS-Alb223
B2: TPP-66099 (VHH)
chain: EVQLVESGGGVVQPGGSLRLSCAASGFTFRSFGMSWVRQAPGKGPEWVSSISGSGSDTLYADSVKGRFTISRDNSKNTLYLQMNSLRPEDTALYYCTIGGSLSRSSQGTLVTVSSGGGGSGGGGSGGGGSGGGGSGGGGSGGGGSGGGGSEVQLVESGGGVVQPGGSLRLSCAASGFTFRSFGMSWVRQAPGKGPEWVSSISGSGSDTLYADSVKGRFTISRDNSKNTLYLQMNSLRPEDTALYYCTIGGSLSRSSQGTLVTVSSGGGGSGGGGSGGGGSGGGGSGGGGSGGGGSGGGGSEVQLVESGGGVVQPGGSLRLSCAASGFTFRSFGMSWVRQAPGKGPEWVSSISGSGSDTLYADSVKGRFTISRDNSKNTLYLQMNSLRPEDTALYYCTIGGSLSRSSQGTLVTVSSA
notes: also called ALB23002-35GS-ALB23002-35GS-ALB23002-A
B3: TPP-66094 (VHH)
chain: EVQLVESGGGVVQPGDSLRLSCAASGGTFSTYVMGWFRQAPGKEREFVSAISQNSIHTYYANSVKGRFTISRDNSKNTVYLQLNSLRPEDTALYYCAASRFTSWYTADYEYDYWGQGTLVTVSSGGGGSGGGGSGGGGSGGGGSGGGGSGGGGSGGGGSEVQLVESGGGVVQPGGSLRLSCAASGFTFRSFGMSWVRQAPGKGPEWVSSISGSGSDTLYADSVKGRFTISRDNSKNTLYLQMNSLRPEDTALYYCTIGGSLSRSSQGTLVTVSSA
notes: also called T023500029-35GS-ALB23002-A; T023500029-35GS-Alb223
B4: TPP-66101 (other)
chain: DLGKKLLEAARAGQDDEVRELLKAGADVNAKDYFSHTPLHLAARNGHLKIVEVLLKAGADVNAKDFAGKTPLHLAANEGHLEIVEVLLKAGADVNAQDIFGKTPADIAADAGHEDIAEVLQKAAGGGGSGGGGSGGGGSGGGGSGGGGSGGGGSGGGGSEVQLVESGGGVVQPGGSLRLSCAASGFTFRSFGMSWVRQAPGKGPEWVSSISGSGSDTLYADSVKGRFTISRDNSKNTLYLQMNSLRPEDTALYYCTIGGSLSRSSQGTLVTVSSGGGGSGGGGSGGGGSGGGGSGGGGSGGGGSGGGGSEVQLVESGGGVVQPGGSLRLSCAASGFTFRSFGMSWVRQAPGKGPEWVSSISGSGSDTLYADSVKGRFTISRDNSKNTLYLQMNSLRPEDTALYYCTIGGSLSRSSQGTLVTVSSA
notes: also called DARPIN-35GS-ALB23002-35GS-ALB23002-A
B5: TPP-66093 (VHH)
chain: EVQLVESGGGVVQPGGSLRLSCAASGLTFSSYAMGWFRQAPGKERERVVSISRGGGYTYYADSVKGRFTISRDNSKNTVYLQMNSLRPEDTALYYCAAARYWATGSEYEFDYWGQGTLVTVSSGGGGSGGGGSGGGGSGGGGSGGGGSGGGGSGGGGSEVQLVESGGGVVQPGGSLRLSCAASGFTFRSFGMSWVRQAPGKGPEWVSSISGSGSDTLYADSVKGRFTISRDNSKNTLYLQMNSLRPEDTALYYCTIGGSLSRSSQGTLVTVSSA
notes: also called ALBX00002-35GS-ALB23002-A; ALBX00002-35GS-Alb223
B6: TPP-66100 (VHH)
chain: EVQLVESGGGVVQPGGSLRLSCAASGLTFSSYAMGWFRQAPGKERERVVSISRGGGYTYYADSVKGRFTISRDNSKNTVYLQMNSLRPEDTALYYCAAARYWATGSEYEFDYWGQGTLVTVSSGGGGSGGGGSGGGGSGGGGSGGGGSGGGGSGGGGSEVQLVESGGGVVQPGDSLRLSCAASGGTFSTYVMGWFRQAPGKEREFVSAISQNSIHTYYANSVKGRFTISRDNSKNTVYLQLNSLRPEDTALYYCAASRFTSWYTADYEYDYWGQGTLVTVSSGGGGSGGGGSGGGGSGGGGSGGGGSGGGGSGGGGSEVQLVESGGGVVQPGGSLRLSCAASGFTFRSFGMSWVRQAPGKGPEWVSSISGSGSDTLYADSVKGRFTISRDNSKNTLYLQMNSLRPEDTALYYCTIGGSLSRSSQGTLVTVSSA
notes: also called ALBX00002-35GS-T023500029-35GS-ALB23002-A
B7: TPP-66097 (other)
chain: LKEAKEKAIEELKKAGITSDYYFDLINKAKTVEGVNALKDEILKAGGGGSGGGGSGGGGSGGGGSGGGGSGGGGSGGGGSEVQLVESGGGVVQPGGSLRLSCAASGFTFRSFGMSWVRQAPGKGPEWVSSISGSGSDTLYADSVKGRFTISRDNSKNTLYLQMNSLRPEDTALYYCTIGGSLSRSSQGTLVTVSSA
notes: also called ABD-35GS-ALB23002-A; ABD-35GS-Alb223
B8: IRR00164 (VHH)
VHH: EVQLVESGGGVVQPGGSLRLSCAASGFTFRSFGMSWVRQAPGKGPEWVSSISGSGSDTLYADSVKGRFTISRDNSKNTLYLQMNSLRPEDTALYYCTIGGSLSRSSQGTLVTVSS
notes: also called CNB-9GS-CNB-9GS-CNB-9GS-ALB23002-A; CNB-CNB-CNB-Alb223

The first assay has as its target T1, human serum albumin (human, UniProt P02768 25-609).
T1 construct: Bought protein; also called HSA
Nature of the assay: SPR, pH 7.4, immobilized HSA density ~100 RU. The method, then:
(§1) The purified multivalent albumin binding constructs were also tested in SPR on different densities of HSA (100 RU until 6700 RU) to detect avidity.
B1 registered a koff of 0.00021 s⁻¹.

The molecule B2 had a koff of 0.00041 s⁻¹.

B3 showed a koff of 0.00012 s⁻¹.

In turn, B4 showed a koff of 0.00076 s⁻¹.

With B5, the koff was found to be 0.00011 s⁻¹.

For B6, the koff stood at 0.00027 s⁻¹.

B7: the koff came out at 7.4e-05 s⁻¹.

A further assay addresses T1, human serum albumin. Nature of the assay: SPR Biacore 8K+, HSA immobilized (C1 chip), pH 7.4, bivalent analyte fit (ka1). The method, then: (§2) The affinities of the purified multivalent albumin binding constructs for HSA at pH 7.4 was determined on a Biacore 8K+ instrument. HSA (Sigma-Aldrich—Sigma, Cat No. A8763) was immobilized on a Series S Sensor Chip C1. The multivalent albumin binding proteins as described in Table 12 above were injected at 9 different concentrations (between 1.6 and 2500 nM) and allowed to associate for 120 s at 30 μL/min and dissociate for 600 s.
In the case of B2, the kon was 370000 M⁻¹ s⁻¹.

As to B3, the association rate constant (kon) was determined as 270000 M⁻¹ s⁻¹.

For the molecule B4, the kon was 300000 M⁻¹ s⁻¹.

B5 returned an on-rate constant (kon) of 180000 M⁻¹ s⁻¹.

B6 gave an on-rate (kon) of 200000 M⁻¹ s⁻¹.

As to B7, the kon turned out to be 180000 M⁻¹ s⁻¹.

A further assay has as its target T1, human serum albumin. Nature of the assay: SPR, pH 7.4, immobilized HSA density ~6700 RU. How it is done:
as §1
For orientation: In SPR one partner is held on a chip, and binding of the other changes the refractive index at the surface.
For B1, the koff is 8.3e-05 s⁻¹.

With B2, the koff worked out at 3.6e-05 s⁻¹.

Regarding B3, the koff turned out to be 5.6e-05 s⁻¹.

B4 gave a koff of 4e-05 s⁻¹.

In turn, B5 displayed a koff of 5.2e-05 s⁻¹.

With B8, the koff came to 0.0012 s⁻¹.

As for B6, the koff turned out to be 0.00032 s⁻¹.

Regarding B7, the koff was 6e-05 s⁻¹.

The target of another assay is T1, human serum albumin. Nature of the assay: SPR Biacore 8K+, HSA immobilized (C1 chip), pH 7.4, bivalent analyte fit. How it is done: as §2
Regarding B2, the “ka2 (bivalent analyte fit)” value came out at 0.0022 M⁻¹ s⁻¹ and the “kd2 (bivalent analyte fit)” value is 0.0038 s⁻¹.

As to B3, the “ka2 (bivalent analyte fit)” value is 0.00027 M⁻¹ s⁻¹ and the “kd2 (bivalent analyte fit)” value amounted to 0.0022 s⁻¹.

In the case of B4, the “ka2 (bivalent analyte fit)” value amounted to 95 M⁻¹ s⁻¹ and the “kd2 (bivalent analyte fit)” value amounted to 65 s⁻¹.

On to B5, for which the “ka2 (bivalent analyte fit)” value was 0.00012 M⁻¹ s⁻¹ and the “kd2 (bivalent analyte fit)” value was found to be 0.00084 s⁻¹.

For the molecule B6, the “ka2 (bivalent analyte fit)” value was 0.0074 M⁻¹ s⁻¹ and the “kd2 (bivalent analyte fit)” value turned out to be 0.026 s⁻¹.

With B7, the “ka2 (bivalent analyte fit)” value is 0.0023 M⁻¹ s⁻¹ and the “kd2 (bivalent analyte fit)” value came out at 0.0088 s⁻¹.

A further assay has as its target T1, human serum albumin. Briefly: SPR, pH 7.4, immobilized HSA density ~500 RU. How it is done: as §1
B1 displayed a koff of 0.00038 s⁻¹.

For B2, the koff was 0.00018 s⁻¹.

B3 had a koff of 9.3e-05 s⁻¹.

In turn, B4 returned a koff of 0.00023 s⁻¹.

Regarding B5, the koff was 8.6e-05 s⁻¹.

Molecule B8 registered a koff of 0.002 s⁻¹.

With B6, the koff is 0.00032 s⁻¹.

On to B7, for which the koff turned out to be 0.00012 s⁻¹.

In a further assay the target is T1, human serum albumin. Nature of the assay: SPR Biacore 8K+, HSA immobilized (C1 chip), pH 7.4, bivalent analyte fit (kd1). How it is done:
as §2
B2 came in with a koff of 0.0005 s⁻¹.

Take B3: the koff stood at 0.00013 s⁻¹.

Take B4: the koff stood at 0.0015 s⁻¹.

Consider B5, for which the koff came out at 0.00012 s⁻¹.

In the case of B6, the koff is 0.00034 s⁻¹.

B7 displayed a koff of 1.5e-05 s⁻¹.

In the next assay the target is T1, human serum albumin. Briefly: SPR, pH 7.4, immobilized HSA density ~3000 RU. The method, then: as §1
Take B1: the off-rate (koff) is 0.00016 s⁻¹.

B2 gave a koff of 7.2e-05 s⁻¹.

The molecule B3 returned a koff of 7.6e-05 s⁻¹.

B4 gave a koff of 0.0001 s⁻¹.

B5 gave a koff of 6.6e-05 s⁻¹.

B8: the koff worked out at 0.0016 s⁻¹.

On to B6, for which the koff came to 0.00036 s⁻¹.

Turning to B7, the koff is 8.4e-05 s⁻¹.

In a further assay the target is T1, human serum albumin. Nature of the assay: SPR Biacore 8K+, HSA immobilized (C1 chip), pH 7.4, bivalent analyte fit (KD1). The method, then:
as §2
In the case of B2, the Kd is 1.4 nM.

Molecule B3 had a Kd of 0.49 nM.

Turning to B4, the Kd was found to be 5 nM.

On to B5, for which the Kd came out at 0.66 nM.

With B6, the Kd was 1.7 nM.

The molecule B7 displayed a Kd of 0.082 nM.
